Measurements from patent US20230114491A1 (IMMUNEONCO BIOPHARMACEUTICALS SHANGHAI, published 2023).

T1: CD24 (human, UniProt P25063 27-59)
T1 construct: whole, on cells; GPI-anchored cell surface protein; also called human CD24; hCD24
T1 chain (looked up): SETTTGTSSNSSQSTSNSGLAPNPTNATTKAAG


What was measured:
CD24 [1] = target: T1, CD24; test: flow cytometry on MCF-7 cells that carry both CD24 and CD47; the two targets are not resolved
Experimental: (§1) Cells were washed with cold PBS twice, and then incubated with 100 μl FITC-conjugated secondary antibody against human IgG-Fc (Cat #F9512, Sigma) for 45 min. Cells were washed twice and re-suspended in 200 μl PBS. Then, the cells were subject to FACS analysis using a flow cytometer (Merck Millipore, Guava® easyCyte 5HT).

CD47 [2] = target: T2, CD47 (human, UniProt Q08722 19-323); test: flow cytometry on Jurkat cells (naturally expressing CD47), FITC anti-human IgG-Fc
T2 construct: whole, on cells; also called CD47s on Jurkat cells; CD47s on MCF-7 human breast cancer cells
T2 sequence (Q08722 19-323): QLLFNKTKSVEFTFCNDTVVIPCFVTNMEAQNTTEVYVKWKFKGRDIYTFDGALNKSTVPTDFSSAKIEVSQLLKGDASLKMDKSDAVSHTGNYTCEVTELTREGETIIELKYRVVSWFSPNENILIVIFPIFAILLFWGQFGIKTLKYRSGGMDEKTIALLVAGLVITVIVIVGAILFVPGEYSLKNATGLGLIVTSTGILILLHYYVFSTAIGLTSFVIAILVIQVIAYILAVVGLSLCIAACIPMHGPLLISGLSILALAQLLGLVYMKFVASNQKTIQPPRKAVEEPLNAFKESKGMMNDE
Experimental: as §1

CD47 [3] = target: T2, CD47; test: flow cytometry on MCF-7 cells that carry both CD24 and CD47; the two targets are not resolved
Experimental: as §1

CD24 [4] = target: T1, CD24; test: flow cytometry on CD24+CD47+ MCF-7 cells; positive control
Experimental: as §1

Row | Binder | binding result (CD24 [1]) | binding result (CD47 [2]) | binding result (CD47 [3]) | binding result (CD24 [4])
1 | IMM4701 (bispecific antibody, human IgG1, kappa, Mutated SIRPαD1 linked via (G4S)3 to the N-terminus of each heavy chain of the anti-CD24 IgG IMM47 (mouse VH, humanized VL); also called recombinant fusion protein IMM4701; SIRPαD1-linker-IMM47's heavy chain + IMM47's light chain) heavy: not shown light: DIQMTQSPSSLSASVGDRVTITCKSSQSLLYSSNQKNYLAWYQQKPGKAPKLLIYWASTRESGVPSRFSGSGSGTDFTLTISSLQPEDFATYYCQQNFIYPLTFGGGTKVELKRTVAAPSVFIFPPSDEQLKSGTASVVCLLNNFYPREAKVQWKVDNALQSGNSQESVTEQDSKDSTYSLSSTLTLSKADYEKHKVYACEVTHQGLSSPVTKSFNRGEC | binds | binds | – | –
2 | IMM4702C (bispecific antibody, human IgG1, kappa, Mutated SIRPαD1 linked via (G4S)3 to the N-terminus of each light chain of IMM47C; also called recombinant fusion protein IMM4702C; IMM47C's heavy chain + SIRPαD1-linker-IMM47C's light chain) heavy: DVQLQESGPDLVKPSQSLSLTCTVTGYSITSGYSWHWIRQFPGNKLEWMGYIHYSGSTKYNPSLKSRISITRDTSKNQFFLQLNSVTTEDTATYFCARGADYALDYWGQRTSVTVSSASTKGPSVFPLAPSSKSTSGGTAALGCLVKDYFPEPVTVSWNSGALTSGVHTFPAVLQSSGLYSLSSVVTVPSSSLGTQTYICNVNHKPSNTKVDKRVEPKSCDKTHTCPPCPAPELLGGPSVFLFPPKPKDTLMISRTPEVTCVVVDVSHEDPEVKFNWYVDGVEVHNAKTKPREEQYNATYRVVSVLTVLHQDWLNGKEYKCKVSNKALPAPIAATISKAKGQPREPQVYTLPPSREEMTKNQVSLTCLVKGFYPSDIAVEWESNGQPENNYKTTPPVLDSDGSFFLYSKLTVDKSRWQQGNVFSCSVMHEALHNHYTQKSLSLSPGK light: not shown | binds | – | binds | –
3 | IMM4702H (bispecific antibody, human IgG1, kappa, Mutated SIRPαD1 linked via (G4S)3 to the N-terminus of each light chain of IMM47H (humanized VH and VL); also called recombinant fusion protein IMM4702H; IMM47H's heavy chain + SIRPαD1-linker-IMM47H's light chain) heavy: DVQLQESGPGLVKPSETLSLTCTVSGYSITSGYSWHWIRQPPGKGLEWIGYIHYSGSTKYNPSLKSRVTISVDTSKNQFSLKLSSVTAADTAVYYCARGADYALDYWGQRTSVTVSSASTKGPSVFPLAPSSKSTSGGTAALGCLVKDYFPEPVTVSWNSGALTSGVHTFPAVLQSSGLYSLSSVVTVPSSSLGTQTYICNVNHKPSNTKVDKRVEPKSCDKTHTCPPCPAPELLGGPSVFLFPPKPKDTLMISRTPEVTCVVVDVSHEDPEVKFNWYVDGVEVHNAKTKPREEQYNATYRVVSVLTVLHQDWLNGKEYKCKVSNKALPAPIAATISKAKGQPREPQVYTLPPSREEMTKNQVSLTCLVKGFYPSDIAVEWESNGQPENNYKTTPPVLDSDGSFFLYSKLTVDKSRWQQGNVFSCSVMHEALHNHYTQKSLSLSPGK light: not shown | binds | – | binds | –
4 | IMM47H (antibody, human IgG1, kappa, V domains shown, IgG antibody with humanized VH and humanized VL; also called anti-CD24 antibody IMM47H) VH: DVQLQESGPGLVKPSETLSLTCTVSGYSITSGYSWHWIRQPPGKGLEWIGYIHYSGSTKYNPSLKSRVTISVDTSKNQFSLKLSSVTAADTAVYYCARGADYALDYWGQRTSVTVSS VL: not shown | – | – | – | binds
